# Results published in US20230266317A1 (published 2023).
# T1: UspA2 of M. catarrhalis Dutch isolate F10, on bacteria (Moraxella catarrhalis)
# T1 chain: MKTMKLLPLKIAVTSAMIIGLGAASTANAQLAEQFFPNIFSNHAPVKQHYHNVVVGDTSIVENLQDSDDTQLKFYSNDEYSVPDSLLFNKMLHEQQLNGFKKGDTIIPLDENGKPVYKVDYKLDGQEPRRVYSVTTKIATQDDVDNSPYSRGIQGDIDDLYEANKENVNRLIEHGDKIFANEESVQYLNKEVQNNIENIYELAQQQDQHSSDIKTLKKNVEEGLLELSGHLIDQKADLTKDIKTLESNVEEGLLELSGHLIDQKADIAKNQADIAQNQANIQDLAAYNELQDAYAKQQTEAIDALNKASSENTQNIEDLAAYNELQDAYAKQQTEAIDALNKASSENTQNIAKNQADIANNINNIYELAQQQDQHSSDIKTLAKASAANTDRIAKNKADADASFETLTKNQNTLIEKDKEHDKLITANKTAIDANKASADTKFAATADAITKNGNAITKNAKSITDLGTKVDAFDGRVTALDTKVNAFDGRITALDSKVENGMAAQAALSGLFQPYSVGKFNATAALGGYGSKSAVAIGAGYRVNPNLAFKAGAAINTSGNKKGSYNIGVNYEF
# T2: UspA2 of M. catarrhalis strain ATCC 25238 (SEQ ID NO: 1), on bacteria (Moraxella catarrhalis)
# T2 chain: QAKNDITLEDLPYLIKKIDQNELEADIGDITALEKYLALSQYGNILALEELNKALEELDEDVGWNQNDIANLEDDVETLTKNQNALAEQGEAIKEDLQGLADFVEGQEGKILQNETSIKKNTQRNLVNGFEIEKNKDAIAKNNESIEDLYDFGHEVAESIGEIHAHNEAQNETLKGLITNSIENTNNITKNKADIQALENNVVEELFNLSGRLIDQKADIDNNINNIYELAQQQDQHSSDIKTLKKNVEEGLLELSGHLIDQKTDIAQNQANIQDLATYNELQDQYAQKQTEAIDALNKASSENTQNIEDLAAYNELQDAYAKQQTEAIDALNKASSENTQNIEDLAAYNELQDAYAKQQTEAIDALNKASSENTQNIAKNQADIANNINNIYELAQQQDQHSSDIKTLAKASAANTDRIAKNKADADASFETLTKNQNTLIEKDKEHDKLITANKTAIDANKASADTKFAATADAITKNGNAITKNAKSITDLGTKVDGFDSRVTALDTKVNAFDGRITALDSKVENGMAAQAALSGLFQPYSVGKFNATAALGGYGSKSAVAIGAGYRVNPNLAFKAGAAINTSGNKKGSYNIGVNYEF
# B1: anti-UspA2 monoclonal antibody FHUSPA2/10 (antibody, V domains shown)
# VH: EVQLQQSGTVLARPGASVKMSCKASGYSFTSYWMHWVKQRPGQGLEWIGAIYPGNSDTSYNQKFKGKAKLTAVTSASTAYMELSNLTNEDSAVYSCTLLRFLDAYWGQGTLVTVSA
# VL: QIVLSQSPAILSASPGEKVTMTCRASSSVSYMHWYQQKPGSSPKPWIYATSNLASGVPARFSGSGSGTSYSLTISRVEAEDAATYYCQQWSSNPPTFGGGSKLEIK
# Experiments:
# Test in all cases: cell-based or functional assay
# [1] = molecular target: T1, UspA2 of M. catarrhalis Dutch isolate …
# [2] = molecular target: UspA2H of M. catarrhalis AERIS isolate 415, on bacteria (Moraxella catarrhalis)
# [3] = molecular target: T2, UspA2 of M. catarrhalis strain ATCC …
# [4] = molecular target: UspA2 of M. catarrhalis Denmark isolate BBH18 (wild type), on bacteria (Moraxella catarrhalis)
# [5] = molecular target: UspA2H of M. catarrhalis AERIS isolate 296, on bacteria (Moraxella catarrhalis)
# [6] = molecular target: UspA1 of M. catarrhalis strain ATCC 43617, on bacteria (Moraxella catarrhalis)
# [7] = molecular target: UspA2H of M. catarrhalis AERIS isolate 240, on bacteria (Moraxella catarrhalis)
# [8] = molecular target: UspA2H of M. catarrhalis AERIS isolate 268, on bacteria (Moraxella catarrhalis)
# [9] = molecular target: UspA2H of M. catarrhalis AERIS isolate 193, on bacteria (Moraxella catarrhalis)
binder,measurement,setting,value
B1,bactericidal activity (mid-point titer),[1],528000 mid-point titer (reciprocal dilution inducing 50% of killing)
same,bactericidal activity (mid-point titer),[2],256000 mid-point titer (reciprocal dilution inducing 50% of killing)
same,bactericidal activity (mid-point titer),[3],1.88e+06 mid-point titer (reciprocal dilution inducing 50% of killing)
same,bactericidal activity (mid-point titer),[4],386000 mid-point titer (reciprocal dilution inducing 50% of killing)
same,bactericidal activity (mid-point titer),[5],114000 mid-point titer (reciprocal dilution inducing 50% of killing)
same,bactericidal activity (mid-point titer),[6],< 100 mid-point titer (reciprocal dilution inducing 50% of killing)
same,bactericidal activity (mid-point titer),[7],> 25600 mid-point titer (reciprocal dilution inducing 50% of killing)
same,bactericidal activity (mid-point titer),[8],> 384000 mid-point titer (reciprocal dilution inducing 50% of killing)
same,bactericidal activity (mid-point titer),[9],> 640000 mid-point titer (reciprocal dilution inducing 50% of killing)
